Bridge positions count the residues as written; N and C are the ends. Ends that are not written are not given here.
T1: human IL-2Rβ (CD122 protein, Fc Tag) (27-239) (human, UniProt P14784 27-239)
T1 construct: range 27-239; Bought protein; also called hu-IL-2Rβ subunit; IL-2Rβ subunit; not shown: Fc tag of the bought protein
T1 sequence (looked up): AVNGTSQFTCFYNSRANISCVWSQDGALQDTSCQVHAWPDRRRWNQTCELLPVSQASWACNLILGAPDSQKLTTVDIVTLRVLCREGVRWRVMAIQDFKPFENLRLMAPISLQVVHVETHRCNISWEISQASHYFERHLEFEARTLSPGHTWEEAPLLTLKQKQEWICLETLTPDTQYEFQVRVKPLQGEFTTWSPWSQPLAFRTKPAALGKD

B1: SEQ ID NO 2691 (peptide)
peptide: WYPCWLAQLGELCDLD
B2: SEQ ID NO 2885 (peptide)
peptide: WYPCWLAQVGELCDLD
B3: SEQ ID NO 2655 (peptide)
peptide: WDGWECGMDHDGWVCEFWGE
B4: SEQ ID NO 2675 (peptide)
peptide: FGAFYPCWKAQLGELCDLEPVT
B5: SEQ ID NO 2682 (peptide)
peptide: WYPCWIAQLGELCDLV
B6: SEQ ID NO 2639 (peptide)
peptide: WRRWYPCWMAQLGELCDLDQWT
modifications: disulfide 7-16 (inferred)
B7: SEQ ID NO 2647 (peptide)
peptide: AHWSQPCWTAQLGELCDLDMGD
modifications: disulfide 7-16 (inferred)
B8: SEQ ID NO 2671 (peptide)
peptide: WYPCWIAHLGELCDLE
B9: SEQ ID NO 2699 (peptide)
peptide: WYPCWLAHLGELCDLE
B10: SEQ ID NO 2725 (peptide)
peptide: WYPCWLAHLGELCDLA
B11: SEQ ID NO 2718 (peptide)
peptide: WHPCWIAHLGELCDLE
B12: SEQ ID NO 2804 (peptide)
peptide: WYPCWMAHLGELCDLE
B13: SEQ ID NO 2644 (peptide)
peptide: SRFWQPCWMAQLGELCHLDPQM
B14: SEQ ID NO 2687 (peptide)
peptide: MNPVGTFYPCWIAKLGELCDLQ
B15: SEQ ID NO 2693 (peptide)
peptide: RPSWAPCWLAQVGELCDLDHPE
B16: SEQ ID NO 2686 (peptide)
peptide: WYSCWIAQIGELCDLE
B17: SEQ ID NO 2672 (peptide)
peptide: WYPCWIARVGELCDME
B18: SEQ ID NO 2884 (peptide)
peptide: WYPCWIARVGELCDLE
B19: SEQ ID NO 2679 (peptide)
peptide: ETLGSVWYPCWIASIGELCDLD
B20: SEQ ID NO 2651 (peptide)
peptide: DLWQPCWMARLGELCDLKG
B21: SEQ ID NO 2697 (peptide)
peptide: SRSAGEYYPCWLAQLGELCDLA
B22: SEQ ID NO 2680 (peptide)
peptide: WYSCWIAQLGELCDLDDMGDRV
B23: SEQ ID NO 2688 (peptide)
peptide: HGGVIGWYPCWMAKVGELCDLD
B24: SEQ ID NO 2668 (peptide)
peptide: TNNFYPCWLAKLGDLCDFDDLN
B25: SEQ ID NO 2702 (peptide)
peptide: RDIWWPCWVAQLGELCDLDDPQ
B26: SEQ ID NO 2677 (peptide)
peptide: WYPCWLAKLGELCDLDRAEALP
B27: SEQ ID NO 2685 (peptide)
peptide: YWCWFARVGELCDLDDGGVPS
B28: SEQ ID NO 2667 (peptide)
peptide: WYPCWIAQLGELCDLDAKGQRR
B29: SEQ ID NO 2692 (peptide)
peptide: WLPCWMAHLGDLCDLE
B30: SEQ ID NO 2650 (peptide)
peptide: TGWWYPCWMAQLGELCDLQQT
B31: SEQ ID NO 2669 (peptide)
peptide: WYPCWIARVGELCDLEEGPVNR
B32: SEQ ID NO 2654 (peptide)
peptide: MLGEWLCEMDQLGYLCYLDHGD
B33: SEQ ID NO 2643 (peptide)
peptide: QPAWLPCWLAQLGELCDLGTGA
B34: SEQ ID NO 2673 (peptide)
peptide: RREWYPCWIAQVGELCDLPLI
modifications: disulfide 7-16 (inferred)
B35: SEQ ID NO 2678 (peptide)
peptide: VWFPCWFAQLGDLCDLDQDP
modifications: disulfide 5-14 (inferred)
B36: SEQ ID NO 2698 (peptide)
peptide: RQVPKQWYPCWMAALGELCDLE
modifications: disulfide 10-19 (inferred)
B37: SEQ ID NO 2641 (peptide)
peptide: AYRIYPCWKAQLGELCDLDNAD
B38: SEQ ID NO 2653 (peptide)
peptide: WYPCGVAQPGDLCDLE
B39: SEQ ID NO 2683 (peptide)
peptide: SHLWFPCWMAQLGELCDLEGGP
B40: SEQ ID NO 2652 (peptide)
peptide: MGTGWQNYCRYAQLGELCLL
B41: SEQ ID NO 2648 (peptide)
peptide: HPVRYPCWVAQLGELCDLENGN
B42: SEQ ID NO 2695 (peptide)
peptide: RSLRESWFPCWMAKLGDLCDLE
B43: SEQ ID NO 2700 (peptide)
peptide: QVMRLWYPCWMAQLGELCDLE
B44: SEQ ID NO 2690 (peptide)
peptide: EQRNRQWWPCWLARLGDLCDLD
B45: SEQ ID NO 2684 (peptide)
peptide: RRWLPCWMAHVGELCDLELGN
B46: SEQ ID NO 2696 (peptide)
peptide: WHPCWLARVGDLCDLD
B47: SEQ ID NO 2681 (peptide)
peptide: WFPCWLAQLGELCDKE
B48: SEQ ID NO 2670 (peptide)
peptide: AVEFYPCWLARIGELCDLVEP
B49: SEQ ID NO 2642 (peptide)
peptide: QRNSFPCWLAQLGDLCDLGDWA
B50: SEQ ID NO 2701 (peptide)
peptide: WYPCWMAQLGELCDLDEAPVQP
B51: SEQ ID NO 2676 (peptide)
peptide: HGRWFPCWMAQVGDLCDLEHSN
B52: SEQ ID NO 2703 (peptide)
peptide: SATWYPCFLANLGELCDLEQEN
B53: SEQ ID NO 2645 (peptide)
peptide: YLNFNPCWTAQLGELCDLASGE
B54: SEQ ID NO 2640 (peptide)
peptide: RRSWYPCRIAQLGELCDLDPRV
modifications: disulfide 7-16 (inferred)
B55: SEQ ID NO 2689 (peptide)
peptide: WYPCSIALLGELCDLESVHEKS
B56: SEQ ID NO 2674 (peptide)
peptide: RWPWYPCEIARIGELCDLEQAN
B57: SEQ ID NO 2649 (peptide)
peptide: QTGSYPCWIAHLGELCDLEGSA
modifications: disulfide 7-16 (inferred)
B58: SEQ ID NO 2694 (peptide)
peptide: ESKEPAFWPCWMAQLGDLCDLE
B59: SEQ ID NO 2646 (peptide)
peptide: STGWYPCWIAEFGELCDLVKPH

Target: T1, human IL-2Rβ (CD122 protein, Fc Tag) …
Assay: phage ELISA competition
Outline: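 Values are IC50s derived from absorbance in a competitive binding ELISA, where a phage tracer competes with test ligands for human IL-2Rβ-Fc across a ligand dilution series. After 50 μL of phage tracer was added without washing for 45 min at 4° C, bound phage was detected with TMB for 1 to 15 min at 25° C. The reaction was then stopped and absorbance read at 450 nm.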

IC50, < 100 µM:
B1
B2
B3
B4
B5
B6
B7
B8
B9
B10
B11
B12
B13
B14
B15
B16
B17
B18
B19
B20
B21
B22
B23
B24
B25
B26
B27
B28
B29
B30
B31
B32
B33
B34
B35
B36
B37
B38
B39
B40
B41
B42
B43
B44
B45
B46
B47
B48
B49
B50
B51
B52
B53
B54
B55
B56
B57
B58
B59
